Consider five molecules from patent US20240207461A1, “RADIOACTIVE ANTITUMOR AGENT” (NIHON MEDI-PHYSICS CO., LTD., priority 2021, published 2024).

Data set [1] deals with SW1990 tumor-bearing mice. Description: SPECT-CT imaging of ^111In-labeled antibodies, VOI analysis and absorbed dose calculation. The note with it: for SPECT absorbed dose liver / SPECT absorbed dose tumor: half-life converted from ^111In to ^225Ac, sphere model; for SPECT absorbed dose liver: mean liver weight 1.15 g; for SPECT absorbed dose tumor: tumor volume assumed 150 mm^3; for maximum tolerated dose (threshold dose/absorbed dose): threshold dose of liver assumed to be 30 Gy. Format: in vivo, Balb/c nude mice. How it is done:
To find an anti-MUC5AC antibody with high tumor accumulation ability and high maximum tolerated dose, various antibodies were labeled with ^111In, administered to tumor-bearing mice, and SPECT-CT imaging was performed. Cumulative amount of radioactivity and absorbed dose in tumor and liver were calculated and compared using the obtained images.
(§1) Human pancreatic cancer cell line SW1990 (0.7×10^7 cells) were subcutaneously administered to Balb/c nude mice (male) from the flank to the back thereof.
(§2) When the tumor size reached about 150-300 mm^3 14 days after transplantation of SW1990, various ^111In-labeled antibodies prepared in Reference Example 1-1 were administered from the tail vein of the mice. The tumor volume was calculated from the following calculation formula.
SPECT-CT imaging (small animal SPECT-CT apparatus: FX-3000, manufactured by Trifoil) was performed under the conditions in the following Table. The time points for imaging were 1, 6, 24, 48, 72, and 168 hr after administration. Image reconstruction was performed by the OSEM method for SPECT and the FBP method for CT. A VOI (volume of interest, three-dimensional ROI) analysis of the tumor and liver at each time point was performed. The count number per organ volume was corrected to % ID/g, the physical half-life was converted from ^111In to ^225Ac, the difference in physical half-life was corrected, and the time activity curve with the biological half-life added was obtained. The cumulative radioactivity amount was calculated from the integrated value of this time activity curve, and the absorbed dose was calculated in a sphere model (OLINDA/EXM ver2.0), and this was compared and examined for each antibody. However, for H01L03, a decrease in the time activity curve was not observed 168 hr after administration. Thus, the biological half-life was not considered and only the physical half-life was added.
When the threshold dose of liver was assumed to be 30 Gy, the maximum tolerated dose was estimated to be 3.90 MBq with a humanized antibody (H01L03) and 0.43 MBq with a chimeric antibody. The maximum tolerated dose (MBq) was calculated by threshold dose (Gy)/absorbed dose (Gy/MBq).
(§3) In the Table, the tumor volume was calculated assuming 150 mm^3 in the absorbed dose of SPECT. The absorbed dose of the liver was calculated based on the mean (1.15±0.14 g, n=19) of the weight of the mouse liver used in this Reference Example. The numerical value of the biodistribution was expressed by the mean±standard deviation of n=4 (however, n=3 for H02L04).

Data set [2] relates to SW1990 tumor-bearing mice. Kind of data set: Biodistribution and excretion route 168 hr after administration of ^111In-labeled antibodies. In kind it is in vivo, Balb/c nude mice. The note with it: for biodistribution at 168 hr after administration, blood / biodistribution at 168 hr after administration, kidney / biodistribution at 168 hr after administration, liver / biodistribution at 168 hr after administration, spleen / biodistribution at 168 hr after administration, tumor: ^111In-labeled antibody, tail vein, mean ± SD n=4 (n=3 for H02L04). As for the experimental part: as §1, §2
A graph showing the results of confirming the biodistribution and the excretion route after the completion of SPECT-CT imaging 168 hr after administration are shown in FIG. 11.
as §3

Where [3] appears, read: ^111In-labeled antibodies, SPECT-CT up to 168 hr.

Changes are numbered by the printed parent chain.

B1: chimeric antibody: anti-MUC5AC chimeric antibody disclosed in Patent Literature 1 (SEQ ID NOs: 23 and 24), tested ^111In-labeled (conjugate)
VH: EVKLVESGGVLVKSGGSLKLSCAVSGFTFSNYGMSWVRQTPEKRLEWVATISNSGRYTYFPDSVKGPFAISRDNAKNNLYLQMSSLRSADTALYYCTRHLDYANYDAMDYWGQGTSVTVSS
VL: DIVLTQSPASLAVSLGQRATISCRASKSVTTSDFSYMHWYQQKPGQPPKLLLYLASNLESGVPDRFSGSGSGYDFYLNIHPVEEEDAATYYCQHSREFPWTFGGGTKLEIK
modifications: 111In label; Kimeric antibody heavy chain variable region 7 (H07); Kimeric antibody light chain variable region 8 (L08)
In the case of B1, in data set [1] (setting [3]), the “accumulation in the liver (comparison among antibodies)” value is recorded as “highest” and the “accumulation in the tumor (comparison among antibodies)” value is on record as “lowest”. For the same molecule, in data set [1], the “SPECT absorbed dose liver” value is recorded as 70.1 Gy/MBq, the “SPECT absorbed dose tumor” value was 9.5 Gy/MBq and the “maximum tolerated dose (threshold dose/absorbed dose)” value is given as 0.43 MBq. In addition, in data set [2], the “biodistribution at 168 hr after administration, blood” value (“biodistribution at 168 hr … blood” for short) turned out to be 2.2 ± 0.6 % ID/g; the “biodistribution at 168 hr after administration, kidney” value (“biodistribution at 168 hr … kidney” below) amounted to 1.8 ± 0.3 % ID/g; the “biodistribution at 168 hr after administration, liver” value (“biodistribution at 168 hr … liver” below) is on record as 7.9 ± 1.9 % ID/g; the “biodistribution at 168 hr after administration, spleen” value (shortened to “biodistribution at 168 hr … spleen”) stood at 5.0 ± 1.8 % ID/g. Also, the “biodistribution at 168 hr after administration, tumor” value (from here on “biodistribution at 168 hr … tumor”) in data set [2] turned out to be 11.6 ± 0.9 % ID/g.

B2: H01L03: anti-MUC5AC humanized antibody, heavy chain variable region H01 (SEQ ID NO: 1), light chain L03 (SEQ ID NO: 7), tested ^111In-labeled via DOTA-PEG-peptide (conjugate)
VH: EVQLLESGGGLVQPGGSLRLSCAASGFTFSNYGMSWVRQAPGKGLEWVSTISNSGRYTYFPDSVKGRFTISRDNSKNTLYLQMNSLRAEDTALYYCTRHLDYANYDAMDYWGQGTLVTVSS
VL: DIQMTQSPSSLSASVGDRVTITCRASKSVTTSDFSYMHWYQQKPGKSPKLLIYLASNLESGVPSRFSGSGSGTDFSLTISSLQPEDFATYYCQHSREFPWTFGGGTKVEIK
modifications: 111In-DOTA-PEG-peptide label; Humanaized antibody heavy chain variable region 1 (H01); Humanaized antibody light chain variable region 3 (L03)
For B2, the “decrease in the time activity curve” value in data set [1] (168 hr after administration) is listed as “not observed”. In addition, the “accumulation in the tumor (comparison among antibodies)” value in data set [1] (setting [3]) is given as “highest”. Besides, in data set [1], the “SPECT absorbed dose liver” value is listed as 7.7 Gy/MBq, the “SPECT absorbed dose tumor” value is recorded as 35.0 Gy/MBq and the “maximum tolerated dose (threshold dose/absorbed dose)” value is listed as 3.90 MBq. In data set [2] (168 hr after administration), the blood retention entry was “high” and the excretion entry was “slowest”. Further, in data set [2], the “biodistribution at 168 hr … blood” value is 5.3 ± 1.3 % ID/g; the “biodistribution at 168 hr … kidney” value is on record as 2.5 ± 0.4 % ID/g; the “biodistribution at 168 hr … liver” value was 3.6 ± 1.7 % ID/g; the “biodistribution at 168 hr … spleen” value was 5.4 ± 0.8 % ID/g. For the same molecule, the “biodistribution at 168 hr … tumor” value in data set [2] came out at 24.2 ± 3.9 % ID/g.

B3: H04L04: anti-MUC5AC humanized antibody, H04 (SEQ ID NO: 4) and L04 (SEQ ID NO: 8), tested ^111In-labeled (conjugate)
VH: B2 VH with A24V, K76R, S85T, L93V, L116P
VL: DIVMTQSPDSLAVSLGERATINCKASKSVTTSDFSYLHWYQQKPGQPPKLLIYLASNLESGVPDRFSGSGSGTDFTLTISSLQAEDVAVYYCQHSREFPWTFGGGTKLEIK
modifications: 111In label; Humanaized antibody heavy chain variable region 4 (H04); Humanaized antibody light chain variable region 4 (L04)
For the molecule B3, in data set [1], the “SPECT absorbed dose liver” value is 35.4 Gy/MBq and the “SPECT absorbed dose tumor” value is on record as 15.0 Gy/MBq. Further, in data set [2], the “biodistribution at 168 hr … blood” value is listed as 3.8 ± 0.7 % ID/g; the “biodistribution at 168 hr … kidney” value was 1.6 ± 0.2 % ID/g; the “biodistribution at 168 hr … liver” value is reported as 3.9 ± 1.4 % ID/g; the “biodistribution at 168 hr … spleen” value turned out to be 3.4 ± 0.3 % ID/g. In addition, the “biodistribution at 168 hr … tumor” value in data set [2] came to 17.2 ± 4.2 % ID/g.

B4: H01L04: anti-MUC5AC humanized antibody, H01 (SEQ ID NO: 1) and L04 (SEQ ID NO: 8), tested ^111In-labeled (conjugate)
VH: B2 VH
VL: B3 VL
modifications: 111In label; Humanaized antibody heavy chain variable region 1 (H01); Humanaized antibody light chain variable region 4 (L04)
On to B4, for which, in data set [1], the “SPECT absorbed dose liver” value was 33.4 Gy/MBq and the “SPECT absorbed dose tumor” value was 15.3 Gy/MBq. In addition, in data set [2], the “biodistribution at 168 hr … blood” value is 2.1 ± 0.8 % ID/g; the “biodistribution at 168 hr … kidney” value is 1.1 ± 0.3 % ID/g; the “biodistribution at 168 hr … liver” value was found to be 3.1 ± 0.9 % ID/g; the “biodistribution at 168 hr … spleen” value came out at 3.8 ± 1.2 % ID/g. In data set [2], the “biodistribution at 168 hr … tumor” value is given as 12.9 ± 2.6 % ID/g.

B5: H02L04: anti-MUC5AC humanized antibody, H02 (SEQ ID NO: 2) and L04 (SEQ ID NO: 8), tested ^111In-labeled (conjugate)
VH: B2 VH with E1L, L5V, L11V, Q13R, V37I, S75A, T78S
VL: B3 VL
modifications: 111In label; Humanaized antibody heavy chain variable region 2 (H02); Humanaized antibody light chain variable region 4 (L04)
On to B5, for which, in data set [1], the “SPECT absorbed dose liver” value is 27.0 Gy/MBq and the “SPECT absorbed dose tumor” value was 13.7 Gy/MBq. In data set [2], the “biodistribution at 168 hr … blood” value came out at 2.6 ± 2.3 % ID/g; the “biodistribution at 168 hr … kidney” value worked out at 1.4 ± 1.0 % ID/g; the “biodistribution at 168 hr … liver” value amounted to 2.7 ± 0.7 % ID/g; the “biodistribution at 168 hr … spleen” value was found to be 4.0 ± 3.0 % ID/g. The “biodistribution at 168 hr … tumor” value in data set [2] amounted to 15.6 ± 6.2 % ID/g.
